Experimental data published in the supplement of paper PMC11316812.
± gives the standard deviation of the averaged measurements.

Experiments:
hTERT-HMEC = assay: percentage of EdU-negative (G0-arrested) nuclei per well, 72 h; higher = more G0 arrest; details: reference: sequence is the full UniProt precursor, the tested protein was the secreted form or ectodomain
MCF7 = assay: as above; details: reference: sequence is the full UniProt precursor, the tested protein was the secreted form or ectodomain
[1] = protein concentration 0.0225 µM
[2] = protein concentration 0.03125 µM
[3] = protein concentration 0.3125 µM
[4] = protein concentration 0.023015 µM
[5] = protein concentration 0.23015 µM
[6] = protein concentration 0.0357143 µM
[7] = protein concentration 0.357143 µM
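Further: secreted proteins added to cultured cells, EdU pulse at the end, nuclei found by Hoechst imaging, EdU status from nuclear versus surrounding ring intensity ratio, PBS as neutral control.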

Question: With “MLALLVLVTVALASAHHGGEHFEGEKVFRVNVEDENHINIIRELASTTQIDFWKPDSVTQIKPHSTVDFRVKAEDTVTVENVLKQNELQYKVLISNLRNVVEAQFDSRVRATGHSYEKYNKWETIEAWTQQVATENPALISRSVIGTTFEGRAIYLLKVGKAGQNKPAIFMDCGFHAREWISPAFCQWFVREAVRTYGREIQVTELLDKLDFYVLPVLNIDGYIYTWTKSRFWRKTRSTHTGSSCIGTDPNRNFDAGWCEIGASRNPCDETYCGPAAESEKETKALADFIRNKLSSIKAYLTIHSYSQMMIYPYSYAYKLGENNAELNALAKATVKELASLHGTKYTYGPGATTIYPAAGGSDDWAYDQGIRYSFTFELRDTGRYGFLLPESQIRATCEETFLAIKYVASYVLEHLY” as the sequence, how does the “percentage of EdU-negative” value (hTERT-HMEC; [1]) read?
Answer: Its value is 5.24 ± 0.55%.

Question: And the “percentage of EdU-negative” value (hTERT-HMEC; protein concentration 0.225 µM)?
Answer: The value was 5.32 ± 0.42%.

Question: What about the “percentage of EdU-negative” value (MCF7; [1]) of the same sequence?
Answer: Its value is 24.5 ± 1.1%.

Question: And the “percentage of EdU-negative” value (MCF7; protein concentration 0.225 µM)?
Answer: Its value is 25.4 ± 0.42%.

Question: What does the source list for “MLAPGSSPGQRGRLALQWRQVSWITCWIALYAVEALPTCPFSCKCDSRSLEVDCSGLGLTTVPPDVPAATRTLLLLNNKLSALPSWAFANLSSLQRLDLSNNFLDRLPRSIFGDLTNLTELQLRNNSIRTLDRDLLRHSPLLRHLDLSINGLAQLPPGLFDGLLALRSLSLRSNRLQNLDRLTFEPLANLQLLQVGDNPWECDCNLREFKHWMEWFSYRGGRLDQLACTLPKELRGKDMRMVPMEMFNYCSQLEDENSSAGLDIPGPPCTKASPEPAKPKPGAEPEPEPSTACPQKQRHRPASVRRAMGTVIIAGVVCGVVCIMMVVAAAYGCIYASLMAKYHRELKKRQPLMGDPEGEHEDQKQISSVA [Q8N967]”?
Answer: percentage of EdU-negative (hTERT-HMEC; [2]): 5.33 ± 1%; percentage of EdU-negative (hTERT-HMEC; [3]): 5.93 ± 0.73%; percentage of EdU-negative (MCF7; [2]): 25.5 ± 0.63%; percentage of EdU-negative (MCF7; [3]): 25.5 ± 2.5%

Question: What does the source list for “MLAVGCALLAALLAAPGAALAPRRCPAQEVARGVLTSLPGDSVTLTCPGVEPEDNATVHWVLRKPAAGSHPSRWAGMGRRLLLRSVQLHDSGNYSCYRAGRPAGTVHLLVDVPPEEPQLSCFRKSPLSNVVCEWGPRSTPSLTTKAVLLVRKFQNSPAEDFQEPCQYSQESQKFSCQLAVPEGDSSFYIVSMCVASSVGSKFSKTQTFQGCGILQPDPPANITVTAVARNPRWLSVTWQDPHSWNSSFYRLRFELRYRAERSKTFTTWMVKDLQHHCVIHDAWSGLRHVVQLRAQEEFGQGEWSEWSPEAMGTPWTESRSPPAENEVSTPMQALTTNKDDDNILFRDSANATSLPVQDSSSVPLPTFLVAGGSLAFGTLLCIAIVLRFKKTWKLRALKEGKTSMHPPYSLGQLVPERPRPTPVLVPLISPPVSPSSLGSDNTSSHNRPDARDPRSPYDISNTDYFFPR”?
Answer: percentage of EdU-negative (hTERT-HMEC; [4]): 5.6 ± 1.1%; percentage of EdU-negative (hTERT-HMEC; [5]): 5.05 ± 0.44%; percentage of EdU-negative (MCF7; [4]): 25.4 ± 3%; percentage of EdU-negative (MCF7; [5]): 24.4 ± 1.3%

Question: What does the source list for “MLCLGWIFLWLVAGERIKGFNISGCSTKKLLWTYSTRSEEEFVLFCDLPEPQKSHFCHRNRLSPKQVPEHLPFMGSNDLSDVQWYQQPSNGDPLEDIRKSYPHIIQDKCTLHFLTPGVNNSGSYICRPKMIKSPYDVACCVKMILEVKPQTNASCEYSASHKQDLLLGSTGSISCPSLSCQSDAQSPAVTWYKNGKLLSVERSNRIVVDEVYDYHQGTYVCDYTQSDTVSSWTVRAVVQVRTIVGDTKLKPDILDPVEDTLEVELGKPLTISCKARFGFERVFNPVIKWYIKDSDLEWEVSVPEAKSIKSTLKDEIIERNIILEKVTQRDLRRKFVCFVQNSIGNTTQSVQLKEKRGVVLLYILLGTIGTLVAVLAASALLYRHWIEIVLLYRTYQSKDQTLGDKKDFDAFVSYAKWSSFPSEATSSLSEEHLALSLFPDVLENKYGYSLCLLERDVAPGGVYAEDIVSIIKRSRRGIFILSPNYVNGPSIFELQAAVNLALDDQTLKLILIKFCYFQEPESLPHLVKKALRVLPTVTWRGLKSVPPNSRFWAKMRYHMPVKNSQGFTWNQLRITSRIFQWKGLSRTETTGRSSQPKEW”?
Answer: percentage of EdU-negative (hTERT-HMEC; [1]): 5.27 ± 0.17%; percentage of EdU-negative (hTERT-HMEC; protein concentration 0.225 µM): 4.77 ± 0.22%; percentage of EdU-negative (MCF7; [1]): 26.2 ± 0.97%; percentage of EdU-negative (MCF7; protein concentration 0.225 µM): 24.78 ± 0.22%

Question: How did the “percentage of EdU-negative” value (hTERT-HMEC; [6]) turn out when “MLCLLLTLGVALVCGVPAMDIPQTKQDLELPKLAGTWHSMAMATNNISLMATLKAPLRVHITSLLPTPEDNLEIVLHRWENNSCVEKKVLGEKTENPKKFKINYTVANEATLLDTDYDNFLFLCLQDTTTPIQSMMCQYLARVLVEDDEIMQGFIRAFRPLPRHLWYLLDLKQMEEPCRF” was run?
Answer: Its value is 5.01 ± 0.051%.

Question: What about the “percentage of EdU-negative” value (hTERT-HMEC; [7]) of the same sequence?
Answer: Its value is 5.65 ± 0.33%.

Question: What about the “percentage of EdU-negative” value (MCF7; [6]) of the same sequence?
Answer: The value was 24.5 ± 2.6%.

Question: What about the “percentage of EdU-negative” value (MCF7; [7]) of the same sequence?
Answer: The value was 23 ± 1.3%.

Question: How did the “percentage of EdU-negative” value (hTERT-HMEC; [1]) turn out when “MLDWRLASAHFILAVTLTLWSSGKVLSVDVTTTEAFDSGVIDVQSTPTVREEKSATDLTAKLLLLDELVSLENDVIETKKKRSFSGFGSPLDRLSAGSVDHKGKQRKVVDHPKRRFGIPMDRIGRNRLSNSRG” was run?
Answer: The value was 5.01 ± 0.71%.

Question: What about the “percentage of EdU-negative” value (hTERT-HMEC; protein concentration 0.225 µM) of the same sequence?
Answer: Its value is 5.5 ± 0.22%.

Question: What about the “percentage of EdU-negative” value (MCF7; [1]) of the same sequence?
Answer: Its value is 23.9 ± 2%.

Question: What about the “percentage of EdU-negative” value (MCF7; protein concentration 0.225 µM) of the same sequence?
Answer: Its value is 24.2 ± 1.3%.

Question: Which results are given for “MLFSALLLEVIWILAADGGQHWTYEGPHGQDHWPASYPECGNNAQSPIDIQTDSVTFDPDLPALQPHGYDQPGTEPLDLHNNGHTVQLSLPSTLYLGGLPRKYVAAQLHLHWGQKGSPGGSEHQINSEATFAELHIVHYDSDSYDSLSEAAERPQGLAVLGILIEVGETKNIAYEHILSHLHEVRHKDQKTSVPPFNLRELLPKQLGQYFRYNGSLTTPPCYQSVLWTVFYRRSQISMEQLEKLQGTLFSTEEEPSKLLVQNYRALQPLNQRMVFASFIQAGSSYTTGEMLSLGVGILVGCLCLLLAVYFIARKIRKKRLENRKSVVFTSAQATTEA [Q9ULX7]”?
Answer: percentage of EdU-negative (hTERT-HMEC; [2]): 4.94 ± 0.17%; percentage of EdU-negative (hTERT-HMEC; [3]): 4.94 ± 0.42%; percentage of EdU-negative (MCF7; [2]): 24.3 ± 0.34%; percentage of EdU-negative (MCF7; [3]): 24.31 ± 0.24%
